Reference: PMC4140816 (PLoS ONE, 2014)
Ends that are not written are not given here.

B1: Lyn SH3 domain (domain or fragment)
chain: EQGDIVVALYPYDGIHPDDLSFKKGEKMKVLEEHGEWWKAKSLLTKKEGFIPSNYVAKLNT
B2: VSL12 peptide (peptide)
peptide: VSLARRPLPPLP
modifications: also: biotin (site not given here)
notes: Biotinylated for immobilisation in SPR; source: synthetic peptide (University of Pittsburgh Peptide Synthesis Core)

Tests used:
VSL12 peptide [1] = target: B2; assay: SPR; same runs as a1 (biotinylated VSL12 on a streptavidin chip, 25°C, HBS-EP); equilibrium responses against analyte concentration, steady state model; details: both partners purified
VSL12 peptide [2] = target: B2; assay: SPR; Biacore 3000; biotinylated VSL12 immobilised to 80 RU on a streptavidin chip; domain proteins flowed in duplicate at 25°C in HBS-EP (10 mM HEPES pH 7.4, 150 mM NaCl, 3 mM EDTA, 0.05% P20); 180 s association, 300 s dissociation; double referenced; kinetic fit, 1:1 Langmuir model; details: both partners purified
Lyn-YEEI = Lyn-YEEI (human, phosphotyrosine in the C-terminal tail (pTyr-Glu-Glu-Ile-Pro)); assay: cell-based or functional assay
Fyn-YEEI = Fyn-YEEI (human, phosphotyrosine in the C-terminal tail (pTyr-Glu-Glu-Ile-Pro)); assay: cell-based or functional assay
c-Src SH3 domain [3] = target: T1, c-Src SH3 domain (human, UniProt P12931-1 81-142); assay: SPR; same runs as a1 (biotinylated VSL12 on a streptavidin chip, 25°C, HBS-EP); equilibrium responses against analyte concentration, steady state model; details: both partners purified
T1 construct: human c-Src, SH3 domain, residues 81-142; Cloned into pET21a through NdeI and XhoI; source: E. coli Rosetta 2(DE3)pLysS, purified (anion exchange, IMAC, SEC)

c-Src SH3 domain [4] = target: T1, c-Src SH3 domain; assay: SPR; Biacore 3000; biotinylated VSL12 immobilised to 80 RU on a streptavidin chip; domain proteins flowed in duplicate at 25°C in HBS-EP (10 mM HEPES pH 7.4, 150 mM NaCl, 3 mM EDTA, 0.05% P20); 180 s association, 300 s dissociation; double referenced; kinetic fit, 1:1 Langmuir model; details: both partners purified

| Binder | Kd (VSL12 peptide [1]) [µM] | Kd (VSL12 peptide [2]) [µM] | koff (VSL12 peptide [2]) [s⁻¹] | kon (VSL12 peptide [2]) [M⁻¹ s⁻¹] | Kact: VSL12 concentration at half-maximal activation of kinase activity (ADP Quest kinetic kinase assay, VSL12 0.1 to 300 µM, basal rate subtracted) (Lyn-YEEI) [µM] | Kact: VSL12 concentration at half-maximal activation of kinase activity (ADP Quest kinetic kinase assay, VSL12 0.1 to 300 µM, basal rate subtracted) (Fyn-YEEI) [µM] | Kd (c-Src SH3 domain [3]) [µM] | Kd (c-Src SH3 domain [4]) [µM] |
| --- | --- | --- | --- | --- | --- | --- | --- | --- |
| B1 | 0.562 | 0.647 | 0.137 | 212000 |  |  |  |  |
| B2 |  |  |  |  | 4.03 | 24.9 | 4 | 3.42 |
